Laboratory results taken from IntAct's records for PubMed 16648257.

B1: Type IV secretion system protein virB8 (Brucella suis biovar 1 (strain 1330)), Q7CEG3 (parent)
chain: MFGRKQSPQKSVKNGQGNAPSVYDEALNWEAAHVRLVEKSERRAWKIAGAFGTITVLLGIGIAGMLPLKQHVPYLVRVNAQTGAPDILTSLDEKSVSYDTVMDKYWLSQYVIARETYDWYTLQKDYETVGMLSSPSEGQSYASQFQGDKALDKQYGSNVRTSVTIVSIVPNGKGIGTVRFAKTTKRTNETGDGETTHWIATIGYQYVNPSLMSESARLTNPLGFNVTSYRVDPEMGVVQ
partner: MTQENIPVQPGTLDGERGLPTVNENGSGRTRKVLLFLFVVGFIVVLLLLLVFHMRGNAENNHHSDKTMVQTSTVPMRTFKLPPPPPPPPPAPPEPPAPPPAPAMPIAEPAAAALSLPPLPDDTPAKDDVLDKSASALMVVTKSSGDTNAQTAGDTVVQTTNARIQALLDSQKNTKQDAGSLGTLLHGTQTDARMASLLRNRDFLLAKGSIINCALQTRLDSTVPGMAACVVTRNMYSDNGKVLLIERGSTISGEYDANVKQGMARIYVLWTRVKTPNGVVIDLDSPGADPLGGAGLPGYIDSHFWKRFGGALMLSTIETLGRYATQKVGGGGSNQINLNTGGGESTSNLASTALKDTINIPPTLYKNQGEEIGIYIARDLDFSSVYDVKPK

Variants of: B1
Details: with virba_brusu virB10, Q9RPX5

Variant | effect of a mutation on the interaction
T201Y | decreasing interaction strength
T201A | decreasing interaction strength
